Reference: US20170129940A1

Assays:
Conditions in all cases: remark: other sources report otherwise
[1] = biological target: T1, hCMV gH + gL + UL128 + UL130 + UL131A (co-expressed in HEK293T cells) (human cytomegalovirus), P12824; assay: competitor: 15D8-biotin; cell staining
[2] = biological target: T1, hCMV gH + gL + UL128 + UL130 + UL131A …; assay: competitor: 5A2-biotin; cell staining
[3] = biological target: T1, hCMV gH + gL + UL128 + UL130 + UL131A …; assay: competitor: 1F11-biotin; cell staining
[4] = biological target: T1, hCMV gH + gL + UL128 + UL130 + UL131A …; assay: competitor: 4N10-biotin; cell staining
[5] = biological target: T1, hCMV gH + gL + UL128 + UL130 + UL131A …; assay: competitor: 10F7-biotin; cell staining
[6] = biological target: T1, hCMV gH + gL + UL128 + UL130 + UL131A …; assay: competitor: 2C12-biotin; cell staining
[7] = biological target: T1, hCMV gH + gL + UL128 + UL130 + UL131A …; assay: competitor: 6G4-biotin; cell staining
[8] = biological target: T1, hCMV gH + gL + UL128 + UL130 + UL131A …; assay: competitor: 4I22-biotin; cell staining
[9] = biological target: T1, hCMV gH + gL + UL128 + UL130 + UL131A …; assay: competitor: 8I21-biotin; cell staining
[10] = biological target: T1, hCMV gH + gL + UL128 + UL130 + UL131A …; assay: competitor: 2F4-biotin; cell staining
[11] = biological target: T1, hCMV gH + gL + UL128 + UL130 + UL131A …; assay: competitor: 9I6-biotin; cell staining
[12] = biological target: T1, hCMV gH + gL + UL128 + UL130 + UL131A …; assay: competitor: 8C15-biotin; cell staining
[13] = biological target: T1, hCMV gH + gL + UL128 + UL130 + UL131A …; assay: competitor: 8J16-biotin; cell staining

Measured: Inhibition of binding (%)

B1: 10F7 (antibody, V domains shown)
VH: EVQLVESGGGLVQPGRSLRLSCTASGFTFGDYAMSWFRQAPGKGLEWVGFIRSKAYGGTTEYAASVKGRFTISRDDSKSIAYLQMNSLKTEDTAVYYCTRASSLLWLLNPQPNFDYWGQGTLVTVSS
VL: SYVLTQPPSVSVAPGQTARITCGGNNIGSNNVHWYQQKPGQAPVLVVYDDSDRPSGIPERFSGSNSGNTATLTISRVEAGDEADYYCQVWDSSSDHPVFGGGTKLTVL
100%: [3] | [5] | [8] | [10]
not listed: [11] | [12] | [13]
0%: all other assays above

B2: 7I13 (antibody, V domains shown)
VH: QVQLVESGGGVVQPGRSLRLSCAASGFTFSNYGMHWVRQGPGKGLEWVAVISYDASSKYYTDSVQGRFTISRDNSKNTLFLQMNSLRGEDTAVYYCAKALRYLDWFLSDPFDYWGQGTLVTVSS
VL: EIVLTQSPGTLSLSPGERATLSCRASQSVSSDFLAWYQQKPGQAPRLLIYGASSRATGIPDRFSGSGSGTDFTLTISRLEPEDFAVYYCQQYAASPPFGQGTRLEIK
0%: [11] | [3] | [6] | [7] | [12] | [9] | [13]

B3: 8L13 (antibody, V domains shown)
VH: QVQLLESGGGVVQPGRSLRLSCAASGFTFSNYGMHWVRQAPGKGLEWVAVIWNDGSKKYYAESVKGRFTISRDNSKNTVYLQMNSLRAEDTAVYYCARDEGVQMVFAMPDYGMDVWGQGTTVTVSS
VL: SYELTQPPSVSVSPGQTASITCSGDKLGDKFACWYQQRPGQSPILVIYQDSKRPSGIPERFSGSNSGNTATLTIRGTQAMDEADYYCQAWDSSTAHYVFGTGTKVTVL
100%: [3] | [5]

B4: 4N10 (antibody, V domains shown)
VH: QVQLVQSGAEVKKPGSSVRVSCKASGGTFSSYVIIWVRQAPGQGLEWMGGVIPIFDTVNYAQKFQGRVTITADESTSTAYMELSSLKSEDTAVYYCARGILAYCGGDCYNTPYGMDVWGQGTTVTVSS
VL: DIQMTQSPSILSASVGDRVTITCRASQSISSWLAWYQQKPGKAPKLLIYKASSLEIGVPSRISGSGSGTEFTLTISSLQPDDFATYYCQQYNSSWTFGQGTKVEIK
100%: [2] | [4]
90%: [9]
not listed: [11] | [12] | [13]
0%: all other assays above

B5: 10P3 (antibody, V domains shown)
VH: EVQLVESGGGLVRPGGSLRLSCAASGFTFHNYRMNWVRQAPGKGLEWVANIKQDGSEKSYVDSVRGRFTTSRDNSKNSLYLQINSLRAEDTAVYYCARGEGYTYGVVYSYSAMDVWGQGTTVIVSS
VL: SYELTQPPSVSVSPGQTARITCSGNVLPNQYASWYQQKPGQAPVLVIYKDTERPSGIPGRFSGSSSGTTVTLTISGVQAEDEADYYCQSADSSGADYVFGTGTKVTVL
0%: [1] | [3] | [6] | [7] | [8] | [9] | [10]

B6: 8I21 (antibody, V domains shown)
VH: LVELVESGGGVVQPGRSLRLSCAASGFTFSSDGMHWVRQSPGRGLEWVAFISSDGSTPYYADSVKGRFTISRDNSKNTLYLQMNSLRAEDTAMYFCAKDWALFRWLRTFDHWGQGTLVTVSS
VL: not shown
95%: [2]
100%: [9]
90%: [4]
0%: [1] | [3] | [6] | [7] | [8] | [10]

B7: 7B13 (antibody, V domains shown)
VH: QVQLVESGGGVVQPGGSLRLSCAASGFSFSNYGMHWVRQAPGKGLEWVALIPSDGNYQYYTDSVKGRFTVSRDNSRNTLYLQMKSLRAEDTARYHCAHLGGGLFDFWGQGTLVTVSS
VL: QSALNQPRSVSGSPGQSVSISCTGSSSDVGGYEFVSWYQHHPGKAPKLIIYDVDKRPSGVPDRFSGSRSGDTASLTISGLQAEDEADYYCYSSADTWVFGGGTKLTVL
100%: [11] | [6] | [7] | [12] | [13]
0%: [9]

B8: 15D8 (antibody, V domains shown)
VH: EVQLVQSGAEVKKPGESLKISCQASGYSFTNYWIAWVRQMPGKGLEWMGIIYPGDSDIKYSPSFRGQVTISADKSISNAFLQWRSLRASDTAMYYCARHAIRGDGFDYWGQGTLVTVSS
VL: SYELTQPPSVSVSPGQTATITCSGDKLGEKYACWYQQKPGQSPVLVMYQDTKRPSGIPERFSGSNSGNTATLTISGTRAMDEADYYCQAWDTNTVIFGGGTKLTVL
100%: [1]
not listed: [11] | [12] | [13]
0%: all other assays above

B9: 8J16 (antibody, V domains shown)
VH: QVQLQESGPGLVKPSETLSLTCSVSGGFTSSYYWSWIRQAPGKGLEWIGYVYYGESTDYNPSLKSRATISIDTSKNQFSLKLSSVTAADTAVYYCAREVDKRGFDYWGQGALVTVSS
VL: EIVLTQSPGTLSLSPGERATLSCRASQSVSGGYLAWYQQEPGQAPRLVIYGASSRATGIPDRFSASGSGTDFTLTITRLEPEDFAVYYCQQYGRTPLTFGGGTKVEIK
70%: [11]
100%: [6] | [7] | [12] | [13]
0%: [3] | [8] | [9] | [10]

B10: 8C15 (antibody, V domains shown)
VH: QVQLQESGPGLVKPSETLSLTCTVSGGSIRSYYWSWIRQPPGKGLEWIGHIYYSGNTNYSPSLQSRVTISLDTPKNQFSLRLSSVTAADTAVYYCARHDVIVVRGVFDVWGQGTVVTVSS
VL: QSALTQPASVSGSPGQSITISCTGTSSDIGTYNLVSWYQQHPGKAPKVLIYDGSKRPSGVSSRFSASKSGNTASLTISGLQAEDETDYYCCSYAGTSDFFVVFGGGTKLTVL
0%: [8] | [9]
100%: [11] | [6] | [7] | [12] | [13]

B11: 4I22 (antibody, V domains shown)
VH: QVQLVESGGGVVQPGRSLRLSCVASGFTFSSYAMHWVRQAPGKGLEWVAVISYDGDNKFYADSVKGRFRISRDTSKNTLYLEMNSLRAADTAIYYCAREELVGLMPPYYNYGLDVWGQGTTVTVSS
VL: QSVLTQPPSVSAAPGQKVTISCSGSNSNIGNNYVSWYQQLPGRAPKLLIYDNDHRPSGIPDRFSGSKSGTSATLVITGLQTGDEADYYCETWDTSLSAAVVFGGGTKLTVL
0%: [2] | [4] | [6] | [9] | [13]
100%: [3] | [5] | [8] | [10]
